Test [1] deals with T1, truncated CD123 target (D2/D3 domains), D2-D3-hCD123 (human, UniProt P26951 101-305).
T1 construct: domain: D2/D3; Bought from Evitria; Detected with hIgG-d2, so it probably carries an Fc tag; also called truncated target (D2-D3-hCD123)
T1 sequence (looked up): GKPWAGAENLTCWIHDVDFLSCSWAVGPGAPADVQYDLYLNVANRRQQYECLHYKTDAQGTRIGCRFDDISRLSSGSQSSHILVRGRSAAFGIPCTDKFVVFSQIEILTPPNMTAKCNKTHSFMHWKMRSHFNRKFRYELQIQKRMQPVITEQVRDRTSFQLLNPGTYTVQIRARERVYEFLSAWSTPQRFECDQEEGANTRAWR
The test is described as follows: HTRF, purified DARPin protein with truncated D2-D3-hCD123, hIgG-d2 and anti-His-Tb. The source says: (§1) The CD123 epitope bound by CD123-specific ankyrin repeat proteins of the invention was investigated using truncated CD123 target protein as well as competition ELISA and HTRF against the benchmark control molecule flotetuzumab-similar (CD3-CD123 specific DART®, purchased from Evitria) and the natural ligand IL-3 (purchased by Peprotech), First, full-length (NTD/D2/D3 domains) and truncated (D2/D3 domains) CD123 targets (purchased from Evitria) were applied in an HTRF binding assay in which they were incubated with DARPin® protein #1 and binding was detected by using either the HTRF reagents Anti 6His-d2 and Streptavidin-Tb for full-length CD123 or hIgG-d2 and anti-His-Tb for truncated CD123. […] The excitation of the reaction was measured at 340 nm and emission at 665 nm and the background at 340 nM and 620 nM respectively. […] Binding was detected by using either the HTRF reagents Anti 6His-d2 and Streptavidin-Tb for full-length CD123 or hIgG-d2 and anti-His-Tb for truncated CD123 target.

The target in test [2] is T2, biotinylated extracellular domains of human CD123 with C-terminal Fc tag and Avi tag (bio.hCD123-Fc(kih)-Avi) (human, UniProt P26951 19-303, biotinylated with BirA-GST (Avi tag)).
T2 construct: Bought from Evitria; the second Fc chain and the number of CD123 arms are not described; also called biotinylated hCD123; recombinant human CD123 target; not shown: Avi tag
T2 sequence: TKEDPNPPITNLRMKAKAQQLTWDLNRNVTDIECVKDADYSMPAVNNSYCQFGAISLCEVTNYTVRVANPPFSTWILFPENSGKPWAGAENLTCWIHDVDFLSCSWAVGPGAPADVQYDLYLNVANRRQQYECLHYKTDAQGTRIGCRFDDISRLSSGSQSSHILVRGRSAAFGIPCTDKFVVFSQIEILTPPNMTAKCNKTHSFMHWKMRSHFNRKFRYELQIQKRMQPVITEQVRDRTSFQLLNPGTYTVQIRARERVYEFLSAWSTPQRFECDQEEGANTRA
The test is described as follows: HTRF, full-length biotinylated hCD123-Fc(kih)-Avi.
Description: as §1

The target in test [3] is T3, CD123 expressed on the surface of Molm-13 (Molm-13 N1) tumor cells (human, UniProt P26951 19-378).
T3 construct: whole, on cells; also called CD123-expressing tumor cells; CD123 expressed on tumor cells
The test is described as follows: flow cytometry on CD123-expressing Molm-13 N1 tumor cells, monospecific format. On the procedure: Binding of binding proteins of the invention to CD123 expressed on the surface of tumor cells was analyzed by fluorescence activated cell sorting (FACS) flow cytometry. For this purpose, CD123 expressing tumor cells (Molm-13 N1) were seeded at 100′000 cells per well in a 96 well plate. DARPin protein #2, DARPin protein #3, DARPin protein #9, DARPin protein #12, DARPin protein #13 and DARPin protein #14, in monospecific format, were titrated down in 1:5 dilution ratio starting at 2000 nM. Tumor cells were resuspended with diluted DARPin proteins and incubated for 60 minutes at 4° C. The assay was performed in PBS including 2% fetal bovine serum without human serum albumin (HSA). After washing twice with Phosphate Buffer saline (PBS), DARPin® protein specific tumor cell binding was detected by adding unlabeled primary anti-rabbit DARPin® antibody (anti-rabbit 1-1-1 antibody, CePower) at 2 ug/ml. An incubation step of at least 30 minutes at 4° C. followed. Afterwards, cells were washed with PBS and a secondary goat anti-rabbit antibody labelled with Alexa Fluor 488 antibody (ThermoFisher) at 2 ug/ml was added. The same incubation conditions applied. Finally, the cells were washed twice and resuspended in Cytofix fixation buffer (BD Biosciences) for 15 min at room temperature (RT).

The target in test [4] is T2, biotinylated extracellular domains of …. The test is described as follows: SPR (ProteOn), bio.hCD123 on neutravidin-coated GLC chip, DARPin 100-1.2 nM, 1:1 Langmuir fit. On the procedure:
Moreover, the binding affinities of three additional purified ankyrin repeat proteins on recombinant human CD123 target were measured and analyzed with a procedure as described above for DARPin proteins #1, #3 to #9. Briefly, neutravidin was precoated on a GLC chip (BioRad) to a level of 6000 RU. In a second step, bio.hCD123 was immobilized to a level of 1030 RU. A serial dilution of 100, 33, 11, 3.7 and 1.2 nM was used to measure the binding of DARPin protein #12, DARPin protein #13 and DARPin protein #14 to bio.hCD123. For all described measurements, an association of 120 s and dissociation of 1200 s using a constant flow of 100 μl/min were applied. The CD123 target was regenerated with two different conditions (10 mM Glycine pH2.0 and 4M MgCl2) each applied for 30s. The signals were double referenced against interspot and the running buffer (PBST-PBS pH 7.4 containing 0.005% Tween 20®) treated control lane A6. The 1:1 Langmuir model was used for the fitting.
KD values were calculated from the estimated on- and off-rates using standard procedures known to the person skilled in the art. The values in Table 2b are averages of multiple replicates.

Where a chain is given by its changes, count along the chain named.

B1: DARPin® protein #20 (non-binding DARPin molecule) (designed binder)
chain: DLGKKLLEAARAGQDDEVRELLKAGADVNAKDKDGYTPLHLAAREGHLEIVEVLLKAGADVNAKDKDGYTPLHLAAREGHLEIVEVLLKAGADVNAQDKSGKTPADLAADAGHEDIAEVLQKAA
notes: Control
Consider B1, for which the binding result in test [1] and in test [2] was “no binding” in each case.

B2: DARPin® protein #9 (monospecific format) (designed binder)
chain: DLGWKLLDAAEIGQDDEVRILLAAGADVNAKDKQGITPLHIAAAHGHLEIVEVLLKAGADVNAKDEIGRTPLHLAAFKGHLEIVEVLLKAGADVNAQDIIGETPADLAAVRGHEDIAEVLQKAA
In turn, B2 returned an EC50 in test [3] of 7.9 nM.

B3: DARPin® protein #12 (designed binder)
chain: B2 chain with D15L, A23K, E114Q
The molecule B3 came in with a Kd in test [4] of 0.49 nM. In test [3], this molecule showed an EC50 of 3.2 nM.

B4: DARPin® protein #13 (designed binder)
chain: DLGKKLLEAALEGQLDEVRELLKAGADVNAKDQEGYTPLHLAAALGHLEIVEVLLKAGADVNAKDQIGRTPLHLAAYKGHLEIVEVLLKAGADVNAQDIIGQTPADLAAQRGHQDIAEVLQKAA
Regarding B4, the Kd in test [4] was found to be 0.02 nM. The molecule further returned an EC50 in test [3] of 0.41 nM.

B5: DARPin® protein #14 (designed binder)
chain: B4 chain with E8Q, Q33I
B5: in test [4], the Kd turned out to be 0.02 nM. The molecule further registered an EC50 in test [3] of 1.3 nM.

B6: DARPin® protein #2 (designed binder)
chain: B4 chain with Q66S, I99L, I100L, Q102E, Q110E, R111Q
In turn, B6 returned an EC50 in test [3] of 29 nM.

B7: DARPin® protein #3 (monospecific format) (designed binder)
chain: DLGKKLLQAARAGQLDEVRELLKAGADVNAKDQYGRTPLHLAAIKGHLEIVEVLLKAGADVNAKDSLGYTPLHLAAVEGPLEIVEVLLKAGADVNAKDAYGQTPLHIAAAWGHLEIVEVLLKAVADVNAQDKSGKTPADLAARAGHQDIAEVLQKAA
With B7, in test [3], the 50% effective concentration (EC50) is 77 nM.

The record behind these values is patent US20240150475A1 (Molecular Partners, published 2024).
